How the values were obtained:
[1] = molecular target: T1, rat LDL receptor (YB2/0 cells) (rat, UniProt P35952 22-879); assay: flow cytometry on YB2/0 cells, antibody at 30 µg/mL
T1 construct: whole, on cells
Protocol: (§1) The cross-reactivity of the anti-LDL-R antibodies was tested in the mouse (C2C12 cells), in the rat (YB2/0 cells), and in the hamster (CHO-K1 cells). The anti-LDL-R 12G4 antibodies were incubated at a final concentration of 30 μg/mL for 3 hours at 4° C. on C2C12, CHO-K1, and YB2/0 cells that had been cultured beforehand under LPDS conditions for 24 hours. The commercial 1C6 (anti-SREBP2, IgG) and C7 (anti-LDL-R, IgG2b) antibodies were used as negative and positive control antibodies, respectively. The detection of the bond was performed using an anti-IgG-PE antibody. The results were expressed as the percentage of fluorescent cells (FIG. 6A) and as mean fluorescence (FIG. 6B).

[2] = molecular target: T2, mouse LDL receptor (C2C12 cells) (mouse, UniProt P35951 22-862); assay: flow cytometry on C2C12 cells, antibody at 30 µg/mL
T2 construct: whole, on cells; also called murine LDL-R
T2 sequence (P35951 22-862): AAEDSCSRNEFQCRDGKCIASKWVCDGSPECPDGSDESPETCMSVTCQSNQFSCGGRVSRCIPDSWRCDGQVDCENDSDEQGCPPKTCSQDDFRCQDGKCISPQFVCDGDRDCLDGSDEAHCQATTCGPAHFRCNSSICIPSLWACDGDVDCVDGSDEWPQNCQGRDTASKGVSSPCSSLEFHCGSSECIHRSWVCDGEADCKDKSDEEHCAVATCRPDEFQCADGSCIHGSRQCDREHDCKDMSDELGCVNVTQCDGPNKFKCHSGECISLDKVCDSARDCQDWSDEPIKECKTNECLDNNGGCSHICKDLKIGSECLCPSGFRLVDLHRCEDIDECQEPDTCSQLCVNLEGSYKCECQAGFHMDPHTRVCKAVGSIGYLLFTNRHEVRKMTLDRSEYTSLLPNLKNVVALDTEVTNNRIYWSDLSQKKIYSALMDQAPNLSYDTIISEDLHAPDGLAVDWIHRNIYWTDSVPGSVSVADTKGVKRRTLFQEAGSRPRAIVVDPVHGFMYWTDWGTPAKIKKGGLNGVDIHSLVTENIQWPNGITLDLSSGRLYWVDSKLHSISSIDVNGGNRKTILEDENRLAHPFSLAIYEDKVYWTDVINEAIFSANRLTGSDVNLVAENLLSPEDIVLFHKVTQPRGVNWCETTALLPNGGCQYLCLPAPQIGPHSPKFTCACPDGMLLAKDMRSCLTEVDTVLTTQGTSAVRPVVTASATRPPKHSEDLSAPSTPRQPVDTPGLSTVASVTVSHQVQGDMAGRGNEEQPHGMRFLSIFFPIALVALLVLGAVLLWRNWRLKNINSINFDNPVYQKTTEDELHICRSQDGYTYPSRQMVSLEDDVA
Protocol: as §1

[3] = molecular target: T3, hamster LDL receptor (CHO-K1 cells) (hamster, UniProt P35950 22-862); assay: flow cytometry on CHO-K1 cells, antibody at 30 µg/mL
T3 construct: whole, on cells
T3 sequence (P35950 22-862): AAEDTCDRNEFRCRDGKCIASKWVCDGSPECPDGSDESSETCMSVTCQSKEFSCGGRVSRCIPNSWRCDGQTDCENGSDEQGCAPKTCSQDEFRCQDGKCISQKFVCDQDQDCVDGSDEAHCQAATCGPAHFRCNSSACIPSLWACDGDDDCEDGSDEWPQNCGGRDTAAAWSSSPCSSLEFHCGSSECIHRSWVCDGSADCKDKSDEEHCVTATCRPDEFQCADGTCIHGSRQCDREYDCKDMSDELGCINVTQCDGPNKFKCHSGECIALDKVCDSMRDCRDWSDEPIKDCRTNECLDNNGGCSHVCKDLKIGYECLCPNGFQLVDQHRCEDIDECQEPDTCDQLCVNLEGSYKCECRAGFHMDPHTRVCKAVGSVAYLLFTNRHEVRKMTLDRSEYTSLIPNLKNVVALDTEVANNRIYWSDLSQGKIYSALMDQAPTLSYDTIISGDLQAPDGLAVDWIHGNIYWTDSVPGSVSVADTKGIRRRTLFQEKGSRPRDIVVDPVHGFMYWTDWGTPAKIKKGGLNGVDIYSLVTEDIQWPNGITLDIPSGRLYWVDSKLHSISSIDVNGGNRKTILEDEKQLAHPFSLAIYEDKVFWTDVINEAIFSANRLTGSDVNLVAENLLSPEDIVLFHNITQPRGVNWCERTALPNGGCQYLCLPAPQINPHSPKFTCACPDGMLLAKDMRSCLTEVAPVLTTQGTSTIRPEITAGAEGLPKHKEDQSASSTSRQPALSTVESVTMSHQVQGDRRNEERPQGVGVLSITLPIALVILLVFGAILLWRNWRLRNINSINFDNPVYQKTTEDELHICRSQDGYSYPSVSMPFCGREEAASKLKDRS
Protocol: as §1

Measured: binding result

T1 sequence (P35952 22-879): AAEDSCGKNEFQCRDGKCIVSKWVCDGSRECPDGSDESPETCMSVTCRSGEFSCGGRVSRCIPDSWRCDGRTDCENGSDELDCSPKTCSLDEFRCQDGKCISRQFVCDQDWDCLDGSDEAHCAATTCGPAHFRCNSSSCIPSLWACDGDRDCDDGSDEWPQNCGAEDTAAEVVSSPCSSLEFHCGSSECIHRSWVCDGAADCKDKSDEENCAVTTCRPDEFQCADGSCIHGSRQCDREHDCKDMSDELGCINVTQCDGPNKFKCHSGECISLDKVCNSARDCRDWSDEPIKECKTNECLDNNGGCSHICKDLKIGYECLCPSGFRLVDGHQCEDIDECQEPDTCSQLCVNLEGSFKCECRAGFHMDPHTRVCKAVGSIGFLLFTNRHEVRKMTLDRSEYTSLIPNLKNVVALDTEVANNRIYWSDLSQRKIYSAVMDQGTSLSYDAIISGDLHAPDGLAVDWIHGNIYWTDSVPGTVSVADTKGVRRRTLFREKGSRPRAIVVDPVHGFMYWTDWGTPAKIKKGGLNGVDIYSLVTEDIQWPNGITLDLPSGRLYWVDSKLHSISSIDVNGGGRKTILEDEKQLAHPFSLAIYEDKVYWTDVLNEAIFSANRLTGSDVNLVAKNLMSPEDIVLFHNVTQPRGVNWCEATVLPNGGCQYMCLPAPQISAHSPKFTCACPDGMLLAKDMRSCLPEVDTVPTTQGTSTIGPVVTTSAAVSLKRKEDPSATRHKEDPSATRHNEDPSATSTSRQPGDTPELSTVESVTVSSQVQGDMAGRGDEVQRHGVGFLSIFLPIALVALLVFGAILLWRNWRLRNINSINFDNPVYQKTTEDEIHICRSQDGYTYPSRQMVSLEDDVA

B1: anti-LDL-R 12G4 antibody (antibody, mouse IgG1, V domains shown)
VH: QIQLVQSGPELKKPGETVKISCKASGYTFTKYGMNWVKQAPGKGLKWMGWINTNTGEPTYAEEFKGRFAFSLETSASTAFLQINNLKNEDTATYFCSRGGYYDSYWGQGTLVTVSA
VL: DIVMSQSPSSLAVSVGEKVTMSCKSSQSLLYSSSQKNYLAWYQQKPGQSPKVLIYWASTRESGVPDRFTGSGSGTDFTLTISSVKAEDLAVYYCQQYYTYRTFGGGTKLEIK
notes: Murine IgG1 kappa purified from ascites of hybridoma H12G4; also called anti-LDL-R 12G4 antibodies; monoclonal antibody produced by the H12G4 hybridoma (CNCM I-3487)
binds: [1] | [2] | [3]
